Reference: patent US20250011433A1 (GLIKNIK, published 2025)
Where a chain is given by its changes, count along the chain named. In names and notes the source's numbering stands. Values belong to the binder of their own block, whether it stands above or below them.

Tests used:
FcγRI [1] = molecular target: T1, FcγRI (UniProt P12314 16-288); assay: BLI (Octet)
T1 construct: also called CD64
Procedure: (§1) Binding of complement-preferential stradomers or parent stradomer G045c to FcγRI, FcγRIIb, FcγRIIIa, FcγRIIa, or FcRn was assessed. RU values of dissociation were measured by biolayer interferometry using a ForteBio Octet instrument. His-tagged receptor proteins were bound to the sensor tip in 1× kinetic analysis buffer from ForteBio after which the on rate of the receptor/protein was measured by transferring the sensor tip to a 1× kinetics buffer containing the purified stradomer of choice. Off rate was measured by transferring the sensor tip to a 1× kinetics buffer, and RU value was calculated from the measured maximum binding using the ForteBio software. Biolayer interferometry detects the binding between a ligand immobilized on the biosensor tip surface and an analyte in solution. When binding occurs it produces an increase in optical thickness at the biosensor tip, which results in a wavelength shift (detected as a response unit of “RU”). The maximum binding level (RU max) is the maximum possible amount of sample binding at equilibrium that saturates the amount of ligand on the sensor surface. The RU 300 is the residual sample binding after 300 seconds of dissociation and is useful to characterize the rate of dissociation of the test article from the test ligand.

FcγRIIb [2] = molecular target: T2, FcγRIIb (UniProt P31994 46-217, limits assumed); assay: BLI (Octet)
T2 sequence (looked up): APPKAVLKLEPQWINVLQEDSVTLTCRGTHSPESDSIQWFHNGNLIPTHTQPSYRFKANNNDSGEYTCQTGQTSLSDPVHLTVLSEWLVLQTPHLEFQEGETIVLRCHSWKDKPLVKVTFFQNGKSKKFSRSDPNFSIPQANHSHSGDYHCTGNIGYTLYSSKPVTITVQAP
Procedure: as §1

C1q = molecular target: T3, C1q (UniProt P02745 23-245; P02746 28-253; P02747 29-245); assay: ELISA on coated C1q
T3 construct: bought C1q coated on ELISA plates at 1 µg/ml; also called complement C1q; complement factor C1q
Procedure: For C1q binding, 96 well plates were coated with C1q (Sigma Cat #: C1740 1 μg/ml) overnight in PBS. After coating, plates were washed 3 times with standard wash buffer (iX PBS+0.05% Tween 20) and blocked with blocking buffer (1% BSA+1× PBS+0.05% Tween 20) for 2 hours at RT. Following blocking, plates were incubated with compound diluted in blocking buffer 100 μL/well and washed 3 times with standard washing buffer. C1q-bound compound was detected by incubation with 1:5000 biotinylated mouse anti-human IgG1(Cat #555869, BD Biosciences) and Streptavidin-HRP (Cat #: 7100-05 Southern Biotech) (100 μl/well) for 1 hour at room temperature followed by washing 3 times with washing buffer, after which color was developed using the standard TMB method according to manufacturer's protocol for 15 minutes. Absorbance was read at 450 nm.

FcγRIIa = molecular target: T4, FcγRIIa (UniProt P12318 36-218, limits assumed); assay: BLI (Octet); legend: - indicates no binding
T4 sequence (looked up): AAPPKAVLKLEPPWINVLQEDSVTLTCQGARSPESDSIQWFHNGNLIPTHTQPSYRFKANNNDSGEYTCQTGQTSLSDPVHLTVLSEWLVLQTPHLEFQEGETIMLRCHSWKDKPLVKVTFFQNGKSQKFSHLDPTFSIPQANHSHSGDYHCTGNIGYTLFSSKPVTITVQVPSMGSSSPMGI
Procedure: as §1

FcγRIIIa = FcγRIIIa (UniProt P08637 17-208); assay: BLI (Octet); legend: - indicates no binding
Procedure: as §1

C3 complement component = molecular target: T5, C3 complement component (UniProt P01024 23-1663); assay: ELISA on coated C3
T5 construct: bought protein coated on ELISA plates at 1 µg/ml

mouse FcγRIIb = molecular target: T6, mouse FcγRIIb (mouse, UniProt P08101 30-207, limits assumed); assay: BLI (Octet), FIG. 19 bottom panels
T6 sequence (looked up): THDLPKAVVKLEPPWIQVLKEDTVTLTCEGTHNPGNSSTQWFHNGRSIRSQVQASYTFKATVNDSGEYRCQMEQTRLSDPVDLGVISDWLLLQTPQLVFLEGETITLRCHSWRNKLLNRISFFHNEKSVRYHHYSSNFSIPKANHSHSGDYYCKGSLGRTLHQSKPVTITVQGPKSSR

mouse FcγRIII = molecular target: T7, mouse FcγRIII (mouse, UniProt P08508 31-215, limits assumed); assay: BLI (Octet), FIG. 19 bottom panels
T7 sequence (looked up): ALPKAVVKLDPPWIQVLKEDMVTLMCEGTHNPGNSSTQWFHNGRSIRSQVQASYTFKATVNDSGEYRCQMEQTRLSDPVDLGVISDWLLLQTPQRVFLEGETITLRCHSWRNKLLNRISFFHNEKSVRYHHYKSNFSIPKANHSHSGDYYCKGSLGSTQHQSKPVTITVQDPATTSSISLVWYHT

mouse FcγRIV = molecular target: T8, mouse FcγRIV (mouse, UniProt A0A0B4J1G0 21-203); assay: BLI (Octet), FIG. 19 bottom panels
T8 construct: not shown: any purification tag (e.g. His tag) on the soluble recombinant receptor used in biolayer interferometry; not described in the passages seen
T8 sequence: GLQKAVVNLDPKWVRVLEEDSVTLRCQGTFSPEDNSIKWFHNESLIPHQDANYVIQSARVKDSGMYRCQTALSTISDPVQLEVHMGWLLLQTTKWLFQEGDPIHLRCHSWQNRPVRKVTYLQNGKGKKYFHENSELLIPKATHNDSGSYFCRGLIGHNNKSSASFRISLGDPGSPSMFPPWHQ

FcγRIIb [3] = molecular target: T2, FcγRIIb; assay: BLI (Octet); legend: - indicates no binding
Procedure: as §1

FcγRI [4] = molecular target: T1, FcγRI; assay: BLI (Octet); legend: - indicates no binding
Procedure: as §1

T3 sequence (P02745 23-245 limits assumed, chain 1 of 3): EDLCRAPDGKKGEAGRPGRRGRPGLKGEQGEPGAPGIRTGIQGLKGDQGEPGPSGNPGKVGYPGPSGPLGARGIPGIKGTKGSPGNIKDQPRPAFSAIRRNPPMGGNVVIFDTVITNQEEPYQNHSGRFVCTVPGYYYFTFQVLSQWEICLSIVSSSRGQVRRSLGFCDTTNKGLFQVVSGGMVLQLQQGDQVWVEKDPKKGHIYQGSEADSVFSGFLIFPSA
T3 sequence (P02746 28-253 limits assumed, chain 2 of 3): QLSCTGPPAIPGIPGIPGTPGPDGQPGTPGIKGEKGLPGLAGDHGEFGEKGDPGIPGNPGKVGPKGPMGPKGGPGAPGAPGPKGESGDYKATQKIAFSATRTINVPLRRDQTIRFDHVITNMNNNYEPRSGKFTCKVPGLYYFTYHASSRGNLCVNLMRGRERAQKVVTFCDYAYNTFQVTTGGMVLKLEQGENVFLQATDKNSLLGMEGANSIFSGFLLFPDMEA
T3 sequence (P02747 29-245 limits assumed, chain 3 of 3): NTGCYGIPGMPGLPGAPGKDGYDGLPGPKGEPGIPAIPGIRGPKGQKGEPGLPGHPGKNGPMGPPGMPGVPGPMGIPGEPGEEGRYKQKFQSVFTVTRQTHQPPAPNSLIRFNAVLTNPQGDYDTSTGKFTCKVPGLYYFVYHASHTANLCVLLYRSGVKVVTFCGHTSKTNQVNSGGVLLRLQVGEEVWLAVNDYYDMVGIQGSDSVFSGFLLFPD
T1 sequence (P12314 16-288 limits assumed): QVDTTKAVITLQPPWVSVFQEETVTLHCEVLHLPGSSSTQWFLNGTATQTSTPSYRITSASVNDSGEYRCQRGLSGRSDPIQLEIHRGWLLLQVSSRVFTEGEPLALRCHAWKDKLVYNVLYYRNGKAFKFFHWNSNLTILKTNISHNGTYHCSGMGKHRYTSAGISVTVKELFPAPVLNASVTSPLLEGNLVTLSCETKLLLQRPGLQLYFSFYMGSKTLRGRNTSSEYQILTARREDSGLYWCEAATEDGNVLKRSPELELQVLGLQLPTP
Sequence of FcγRIIIa (P08637 17-208 limits assumed): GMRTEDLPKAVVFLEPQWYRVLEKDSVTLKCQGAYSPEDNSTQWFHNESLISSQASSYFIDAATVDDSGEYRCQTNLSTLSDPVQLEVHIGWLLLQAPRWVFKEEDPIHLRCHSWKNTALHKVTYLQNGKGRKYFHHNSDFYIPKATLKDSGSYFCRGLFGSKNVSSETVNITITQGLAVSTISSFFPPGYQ

binding result (FcγRI [1]): binds
binding result (FcγRIIb [2]): binds
binding result (C1q): binds
binding result (FcγRIIa): no binding
binding result (FcγRIIIa): no binding
B1: G994 (Fc fusion)
chain: EPKSCDKTHTCPPCPAPPLLRGPSVFLFPPKPKDTLMISRTPEVTCVVVDVEFEDPEVKFNWYVDGVEVHNAKTKPREEQYNSTYRVVSVLTVLHQDWLNGKEYKCKVTNKALPAPIEKTISKAKGQPREPQVYTLPPSRDELTKNQVSLTCLVKGFYPSDIAVEWESNGQPENNYKTTPPVLDSDGSFFLYSKLTVDKSRWQQGNVFSCSVMHEALHNHYTQKSLSLSPGKERKCCVECPPCP
notes: G045c background, E233P/G236R/S267E/H268F/S324T; leader 1-20 cleaved; also called G994 (DEL); G994 (EEM)

binding result (FcγRI [1]): binds
binding result (FcγRIIb [2]): binds
binding result (C1q): binds
binding result (FcγRIIa): no binding
binding result (FcγRIIIa): no binding
B2: G998 (Fc fusion)
chain: B1 chain with P18E, R21G, N82A
notes: G045c background, S267E/H268F/N297A/S324T; leader 1-20 cleaved; also called G998 (DEL); G998 (EEM)

binding result (FcγRI [1]): binds
binding result (FcγRIIb [2]): binds
binding result (C1q): binds
binding result (mouse FcγRIIb): no binding
binding result (mouse FcγRIII): no binding
binding result (mouse FcγRIV): no binding
binding result (FcγRIIIa): no binding
B3: G996 (Fc fusion)
chain: B1 chain with P18E
notes: G045c background, G236R/S267E/H268F/S324T; leader 1-20 cleaved
binding result (C3 complement component): no binding (tested: 100 µg/ml top concentration)

binding result (FcγRI [1]): binds
binding result (C1q): binds
binding result (FcγRIIb [3]): no binding
binding result (FcγRIIIa): no binding
B4: G1033 (Fc fusion)
chain: B1 chain with P18E, L19A, L20A, R21G, N82A
notes: G045c background, L234A/L235A/S267E/H268F/N297A/S324T; leader 1-20 cleaved; also called G1033 (DEL); G1033 (EEM)

binding result (FcγRI [4]): no binding
binding result (FcγRIIIa): no binding
B5: G1022 (Fc fusion)
chain: EPKSCDKTHTCPPCPAPPVAGPSVFLFPPKPKDTLMISRTPEVTCVVVDVEFEDPEVKFNWYVDGVEVHNAKTKPREEQYASTYRVVSVLTVLHQDWLNGKEYKCKVTNKALPAPIEKTISKAKGQPREPQVYTLPPSRDELTKNQVSLTCLVKGFYPSDIAVEWESNGQPENNYKTTPPVLDSDGSFFLYSKLTVDKSRWQQGNVFSCSVMHEALHNHYTQKSLSLSPGKERKCCVECPPCP
notes: G045c background, E233P/L234V/L235A/S267E/H268F/N297A/S324T, G236 deleted; leader 1-20 cleaved

binding result (FcγRIIb [2]): binds
binding result (C1q): binds
binding result (FcγRI [4]): no binding
binding result (FcγRIIIa): no binding
B6: G1050 (Fc fusion)
chain: B5 chain with L112F
notes: G045c background, E233P/L234V/L235A/S267E/H268F/N297A/S324T/L328F, G236 deleted; leader 1-20 cleaved
